Measured values reported in patent US20200095340A1.
Where a chain is given by its changes, count along the chain named.

B1: anti-DLL3 trispecific protein, DLL3 binder 2B011 (protein, part only; not given: CD3 binder and albumin binder, part only)
chain, part: EVQLVESGGGLVQPGGSLTLSCVASGNTSSINAMGWYRRAPGKQRELVAGISSDGSRVYADSVKGRFTISRDNAKNSVYLQMNSLRAEDTAVYYCYYFRTVSGSSMRSWGQGTLVTVSSGGGGSGGGSGGGGSGGGSHHHHHH
B2: anti-DLL3 trispecific protein, DLL3 binder 1D02 (protein, part only; not given: CD3 binder and albumin binder, part only)
chain, part: B1 chain, part with N27S, G35A, D54N, R57K, T100Q, S108Y
B3: anti-DLL3 trispecific protein, DLL3 binder 1H06 (protein, part only; not given: anti-CD3 fragment and anti-albumin sdAb, part only)
chain, part: B1 chain, part with N27T, R57K, A60V, T100F, V101L, S108Y
B4: anti-DLL3 trispecific protein, DLL3 binder 2C01 (protein, part only; not given: anti-CD3 fragment and anti-albumin sdAb, part only)
chain, part: B1 chain, part with N27S, S29A, R57K, T100Y, S108Y
B5: anti-DLL3 trispecific protein, DLL3 binder 1G05 (protein, part only; not given: anti-CD3 fragment and anti-albumin sdAb, part only)
chain, part: B1 chain, part with N27S, M34I, R57K, V58Y, S102T, S108Y
B6: anti-DLL3 trispecific protein, DLL3 binder 2D02 (protein, part only; not given: anti-CD3 fragment and anti-albumin sdAb, part only)
chain, part: B1 chain, part with N27S, M34L, R57L, T100I, S108Y
B7: anti-DLL3 trispecific protein, DLL3 binder 2G011 (protein, part only; not given: anti-CD3 fragment and anti-albumin sdAb, part only)
chain, part: B1 chain, part with N27S, V48P, S53R, R57K, T100Y, S108Y
B8: anti-DLL3 trispecific protein, DLL3 binder 2E08 (protein, part only; not given: anti-CD3 fragment and anti-albumin sdAb, part only)
chain, part: B1 chain, part with N27S, T28R, S53A, R57K, V101Q, S108Y
B9: anti-DLL3 trispecific protein, DLL3 binder 1H08 (protein, part only; not given: CD3 binder and albumin binder, part only)
chain, part: B1 chain, part with N27S, S29F, R57K, Y59L, T100L, S108Y
B10: anti-DLL3 trispecific protein, DLL3 binder 1E05 (protein, part only; not given: anti-CD3 fragment and anti-albumin domain, part only)
chain, part: B1 chain, part with N27S, S30V, G35A, V48A, R57K, D61K, V63A, R99N, S108Y
B11: anti-DLL3 trispecific protein, DLL3 binder 1B08 (protein, part only; not given: CD3 binder and albumin binder, part only)
chain, part: B1 chain, part with N27T, R57K, A60V, T100F, S108Y
B12: anti-DLL3 trispecific protein, DLL3 binder 1F07 (protein, part only; not given: CD3 fragment and albumin sdAb, part only)
chain, part: B1 chain, part with N27S, R57K, Y59D, S108Y
B13: anti-DLL3 trispecific protein, DLL3 binder 3E02 (protein, part only; not given: anti-CD3 fragment and anti-albumin domain, part only)
chain, part: EVQLVESGGGLVQPGGSLTLSCAASGSGVRFLSMAWYRQAPGKKRELVAGISPDGSTDYIDSVKGRFTISRDNAKNSVYLQMNSLRAEDTAVYYCYAYRWTRRYTYWGQGTLVTVSSGGGGSGGGSGGGGSGGGSHHHHHH
B14: anti-DLL3 trispecific protein, DLL3 binder 4B06 (protein, part only; not given: anti-CD3 fragment and anti-albumin domain, part only)
chain, part: B13 chain, part with G28R, R30S, P53A, I60F
B15: anti-DLL3 trispecific protein, DLL3 binder 3G08 (protein, part only; not given: anti-CD3 fragment and anti-albumin sdAb, part only)
chain, part: B13 chain, part with G28R, R30S, P53K, R102T, Y104V
B16: anti-DLL3 trispecific protein, DLL3 binder 3C01 (protein, part only; not given: CD3 binder and albumin binder, part only)
chain, part: B13 chain, part with G28S, P53A, D54H, T101S, R102T
B17: anti-DLL3 trispecific protein, DLL3 binder 3D08 (protein, part only; not given: anti-CD3 fragment and anti-albumin sdAb, part only)
chain, part: B13 chain, part with G28S, P53A, D54N, R102N
B18: anti-DLL3 trispecific protein, DLL3 binder 3A010 (protein, part only; not given: anti-CD3 fragment and anti-albumin sdAb, part only)
chain, part: B13 chain, part with G28R, R30S, P53A, D58L, R102T, Y104R
B19: anti-DLL3 trispecific protein, DLL3 binder 3F09 (protein, part only; not given: anti-CD3 fragment and anti-albumin sdAb, part only)
chain, part: B13 chain, part with G28S, P53R, T101G, R102T
B20: anti-DLL3 trispecific protein, DLL3 binder 3E01 (protein, part only; not given: anti-CD3 fragment and anti-albumin sdAb, part only)
chain, part: B13 chain, part with G28S, R30K, P53A, D58M, T101H, R102T
B21: anti-DLL3 trispecific protein, DLL3 binder 3B02 (protein, part only; not given: CD3 fragment and albumin sdAb, part only)
chain, part: B13 chain, part with G28S, R30Q, P53A, D61N, T101R, R102T
B22: anti-DLL3 trispecific protein, DLL3 binder 4F03 (protein, part only; not given: CD3 binder and albumin binder, part only)
chain, part: B13 chain, part with G28S, R30Q, P53Y, T101R, R102T
B23: anti-DLL3 trispecific protein, DLL3 binder 4E011 (protein, part only; not given: anti-CD3 fragment and anti-albumin sdAb, part only)
chain, part: B13 chain, part with G28S, R30S, P53A, D54T, T101S, R102T
B24: anti-DLL3 trispecific protein, DLL3 binder 4H03 (protein, part only; not given: CD3 binder and albumin binder, part only)
chain, part: B13 chain, part with G28R, R30S, P53A, D58S, R102T
B25: anti-DLL3 trispecific protein, DLL3 binder 3A05 (protein, part only; not given: anti-CD3 fragment and anti-albumin domain, part only)
chain, part: B13 chain, part with G28S, R30S, P53E, D54A, T101R, R102T
B26: anti-DLL3 trispecific protein, DLL3 binder 3G06 (protein, part only; not given: CD3 binder and albumin binder, part only)
chain, part: B13 chain, part with G28S, R30K, P53A, D58L, R102T, Y104R
B27: anti-DLL3 trispecific protein, DLL3 binder 4H07 (protein, part only; not given: anti-CD3 fragment and anti-albumin sdAb, part only)
chain, part: B13 chain, part with S27R, G28S, R30S, P53A, D54N, T101S, R102T
B28: anti-DLL3 trispecific protein, DLL3 binder 3B06 (protein, part only; not given: anti-CD3 fragment and anti-albumin sdAb, part only)
chain, part: B13 chain, part with S27K, G28S, R30S, P53K, R102T
B29: anti-DLL3 trispecific protein, DLL3 binder 3B010 (protein, part only; not given: anti-CD3 and anti-albumin domains, part only)
chain, part: B13 chain, part with G28S, R30S, P53R, T101V, R102T
B30: anti-DLL3 trispecific protein, DLL3 binder 4F02 (protein, part only; not given: anti-CD3 fragment and anti-albumin domain, part only)
chain, part: B13 chain, part with G28T, R30S, P53H, R102T
B31: anti-DLL3 trispecific protein, DLL3 binder 3A03 (protein, part only; not given: CD3 fragment and albumin sdAb, part only)
chain, part: B13 chain, part with G28R, R30S, P53R, R102T, Y104R
B32: anti-DLL3 trispecific protein, DLL3 binder 4B04 (protein, part only; not given: anti-CD3 fragment and anti-albumin sdAb, part only)
chain, part: B13 chain, part with G28S, R30L, I51V, P53S, T101R, R102T
B33: anti-DLL3 trispecific protein, DLL3 binder 3D010 (protein, part only; not given: CD3 binder and albumin binder, part only)
chain, part: B13 chain, part with G28S, V29K, R30S, P53A, D58S, R102T
B34: anti-DLL3 trispecific protein, DLL3 binder 3A01 (protein, part only; not given: anti-CD3 fragment and anti-albumin sdAb, part only)
chain, part: B13 chain, part with G28S, R30K, P53A
B35: anti-DLL3 trispecific protein, DLL3 binder 3G07 (protein, part only; not given: anti-CD3 fragment and anti-albumin sdAb, part only)
chain, part: B13 chain, part with G28S, R30S, P53R, R102S
B36: anti-DLL3 trispecific protein, DLL3 binder 3F08 (protein, part only; not given: CD3 fragment and albumin sdAb, part only)
chain, part: B13 chain, part with G28R, R30S, P53A, D58L, T101H, R102T
B37: anti-DLL3 trispecific protein, DLL3 binder 3H09 (protein, part only; not given: anti-CD3 fragment and anti-albumin domain, part only)
chain, part: B13 chain, part with G26K, G28S, R30S, P53A, R102T, Y104A
B38: anti-DLL3 trispecific protein, DLL3 binder 3A08 (protein, part only; not given: CD3 binder and albumin binder, part only)
chain, part: B13 chain, part with G28S, R30G, P53A, D61R, T101R, R102T
B39: anti-DLL3 trispecific protein, DLL3 binder 3G011 (protein, part only; not given: anti-CD3 fragment and anti-albumin sdAb, part only)
chain, part: B13 chain, part with G28R, R30S, P53A, D58G, T101A, R102T
B40: anti-DLL3 trispecific protein, DLL3 binder 4G02 (protein, part only; not given: CD3 binder and albumin binder, part only)
chain, part: B13 chain, part with G28S, R30K, P53R, R102T, Y104H
B41: anti-DLL3 trispecific protein, DLL3 binder 3D05 (protein, part only; not given: CD3 binder and albumin binder, part only)
chain, part: B13 chain, part with G28S, P53A
B42: anti-DLL3 trispecific protein, DLL3 binder 3H07 (protein, part only; not given: anti-CD3 and anti-albumin domains, part only)
chain, part: B13 chain, part with G28R, R30S, P53A, D58S, T101R, R102T
B43: anti-DLL3 trispecific protein, DLL3 binder 3C011 (protein, part only; not given: anti-CD3 fragment and anti-albumin domain, part only)
chain, part: B13 chain, part with G28S, P53A, D54H, T101R, R102T
B44: anti-DLL3 trispecific protein, DLL3 binder 3D02 (protein, part only; not given: anti-CD3 fragment and anti-albumin sdAb, part only)
chain, part: B13 chain, part with G28S, P53R, T101I, R102T
B45: anti-DLL3 trispecific protein, DLL3 binder 4A06 (protein, part only; not given: anti-CD3 fragment and anti-albumin domain, part only)
chain, part: B13 chain, part with G28S, P53R, R102T, Y104R
B46: anti-DLL3 trispecific protein, DLL3 binder 3F03 (protein, part only; not given: CD3 fragment and albumin sdAb, part only)
chain, part: B13 chain, part with G28S, R30S, P53A, T101R, R102T
B47: anti-DLL3 trispecific protein, DLL3 binder 4C08 (protein, part only; not given: CD3 binder and albumin binder, part only)
chain, part: B13 chain, part with A23V, G28Q, R30S, P53A, I60F
B48: anti-DLL3 trispecific protein, DLL3 binder 4H09 (protein, part only; not given: anti-CD3 and anti-albumin domains, part only)
chain, part: B13 chain, part with G28S, R30S, F31K, P53A, I60R, R102Y
B49: anti-DLL3 trispecific protein, DLL3 binder 3A06 (protein, part only; not given: anti-CD3 fragment and anti-albumin domain, part only)
chain, part: B13 chain, part with S21R, G28K, R30S, P53A, I60V

Biological target: biotinylated human DLL3 protein expressed as a human IgG1 fusion protein (human) (UniProt Q9NYJ7)
Sequence (Q9NYJ7 27-492): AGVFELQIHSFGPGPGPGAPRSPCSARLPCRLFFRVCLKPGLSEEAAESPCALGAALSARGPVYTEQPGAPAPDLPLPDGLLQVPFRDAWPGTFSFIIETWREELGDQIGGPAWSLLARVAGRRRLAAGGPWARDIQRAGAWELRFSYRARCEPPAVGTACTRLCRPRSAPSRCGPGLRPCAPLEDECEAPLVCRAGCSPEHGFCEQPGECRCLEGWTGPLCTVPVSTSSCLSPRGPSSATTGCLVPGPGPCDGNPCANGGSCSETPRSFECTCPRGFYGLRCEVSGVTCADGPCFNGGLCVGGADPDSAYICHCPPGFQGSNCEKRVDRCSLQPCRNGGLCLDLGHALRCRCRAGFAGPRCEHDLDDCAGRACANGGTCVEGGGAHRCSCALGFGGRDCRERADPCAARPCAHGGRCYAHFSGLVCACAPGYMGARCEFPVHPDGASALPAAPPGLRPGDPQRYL
Experiment: Octet, biotinylated human DLL3-IgG1 fusion on streptavidin tips, single 50 nM, conditioned medium (relative KD)

Kd, 13 nM:
B7, B12, B23, B24, B35, B42, B45, B46

Kd, 15 nM:
B25, B28, B30, B40

Kd, 16 nM:
B14, B20, B27, B34, B41, B47, B48, B49

Kd, 12 nM:
B4, B11, B13, B15, B18, B19, B21, B22, B26, B29, B31, B32, B38, B44

Kd, 11 nM:
B1

Kd, 14 nM:
B2, B3, B5, B6, B10, B16, B33, B36, B37, B43

Kd, 17 nM:
B8, B9, B17, B39
